Assay results as given in PMC2897852 (PLoS ONE, 2010).

B1: His-ClpX (M. tuberculosis ClpX, pRD21) (natural protein)
chain: not shown
notes: also called his-clpXTB; recombinant His-ClpX fusion protein

Legend:
[1] = biological target: B1; test: ELISA; details: both partners purified
[2] = biological target: the molecule itself; test: SEC; purified ClpX on a Superdex 200 10/300 GL column; data not shown

| Binder | binding result [1] | stoichiometry N [2] |
| --- | --- | --- |
| purified FtsZ (M. tuberculosis) as used in the solid-phase binding and polymerization assays (natural protein, also called FtsZTB) MTPPHNYLAVIKVVGIGGGGVNAVNRMIEQGLKGVEFIAINTDAQALLMSDADVKLDVGRDSTRGLGAGADPEVGRKAAEDAKDEIEELLRGADMVFVTAGEGGGTGTGGAPVVASIARKLGALTVGVVTRPFSFEGKRRSNQAENGIAALRESCDTLIVIPNDRLLQMGDAAVSLMDAFRSADEVLLNGVQGITDLITTPGLINVDFADVKGIMSGAGTALMGIGSARGEGRSLKAAEIAINSPLLEASMEGAQGVLMSIAGGSDLGLFEINEAASLVQDAAHPDANIIFGTVIDDSLGDEVRVTVIAAGFDVSGPGRKPVMGETGGAHRIESAKAGKLTSTLFEPVDAVSVPLHTNGATLSIGGDDDDVDVPPFMRR | binds |  |
| B1 |  | 6 |
